Laboratory results as given in patent US20100298227A1 (published 2010).

What was measured:
[1] = target: Detergent-soluble HLA-DR2 purified from MGAR cells (DRB1*1501) (human)
[2] = target: Detergent-soluble HLA-DR4 purified from Priess cells (DRB1*0401) (human)
[3] = target: Detergent-soluble HLA-DR1 purified from LG-2 cells (DRB1*0101) (human)
[4] = target: Detergent-soluble HLA-DR4 purified from Priess cells (DRB1*0401) (human); assay: competition with biotinylated TAL for purified HLA-DR; competitor TAL
[5] = target: Detergent-soluble HLA-DR2 purified from MGAR cells (DRB1*1501) (human); assay: as above
[6] = target: Detergent-soluble HLA-DR1 purified from LG-2 cells (DRB1*0101) (human); assay: as above

## Copolymer 1
[1]
  IC50: 10.1 µM
  Kd: 0.082 µM
[2]
  IC50: 10.8 µM
  Kd: 0.015 µM
[3]
  IC50: 8.8 µM
  Kd: 0.074 µM

## GAL terpolymer (SD-1689), poly[L-Glu 0.153, L-Ala 0.479, L-Lys 0.365]
[1]
  IC50: < 1000 µM
  Kd: 0.017 µM
[2]
  IC50: < 1000 µM
  Kd: 0.003 µM
[3]
  IC50: < 1000 µM

## GTL terpolymer (SD-1697), poly[L-Tyr 0.162, L-Glu 0.259, L-Lys 0.579]
[1]
  IC50: 25.4 µM
[2]
  IC50: 43 µM
  Kd: 0.008 µM
[3]
  IC50: 43 µM
  Kd: 0.004 µM

## TAL terpolymer (SD-1691), poly[L-Tyr 0.102, L-Ala 0.542, L-Lys 0.353]
[1]
  IC50: 2.7 µM
  Kd: 0.017 µM
[3]
  IC50: 3.3 µM

## TGA terpolymer (SD-1690), poly[L-Tyr 0.136, L-Glu 0.21, L-Ala 0.648]
[1]
  IC50: 9.5 µM
  Kd: 0.008 µM
[2]
  IC50: 1 µM
  Kd: 0.008 µM
[3]
  IC50: 1.3 µM
  Kd: 0.01 µM

B1: bacterial superantigen TSST-1 (other)
chain: STNDNIKDLLDWYSSGSDTFTNSEVLDNSLGSMRIKNTDGSISLIIFPSPYYSPAFTKGEKVDLNTKRTKKSQHTSEGTYIHFQISGVTNTEKLPTPIELPLKVKVHGKDSPLKYGPKFDKKQLAISTLDFEIRHQLTQIHGLYRSSDKTGGYWKITMNDGSTYQSDLSKKFEYNTEKPPINIDEIKTIEAEIN
[4]
  fold amount of superantigen needed to inhibit TAL binding: 50 fold
[5]
  fold amount of superantigen needed to inhibit TAL binding: 50 fold
[6]
  fold amount of superantigen needed to inhibit TAL binding: 50 fold

B2: bacterial superantigen SEA (other)
chain: SEKSEEINEKDLRKKSELQGTALGNLKQIYYYNEKAKTENKESHDQFLQHTILFKGFFTDHSWYNDLLVDFDSKDIVDKYKGKKVDLYGAYYGYQCAGGTPNKTACMYGGVTLHDNNRLTEEKKVPINLWLDGKQNTVPLETVKTNKKNVTVQELDLQARRYLQEKYNLYNSDVFDGKVQRGLIVFHTSTEPSVNYDLFGAQGQYSNTLLRIYRDNKTINSENMHIDIYLYTS
[4]
  fold amount of superantigen needed to inhibit TAL binding: 50 fold
[5]
  fold amount of superantigen needed to inhibit TAL binding: 50 fold
[6]
  fold amount of superantigen needed to inhibit TAL binding: 50 fold

B3: bacterial superantigen SEB (other)
chain: ESQPDPKPDELHKSSKFTGLMENMKVLYDDNHVSAINVKSIDQFLYFDLIYSIKDTKLGNYDNVRVEFKNKDLADKYKDKYVDVFGANYYYQCYFSKKTNDINSHQTDKRKTCMYGGVTEHNGNQLDKYRSITVRVFEDGKNLLSFDVQTNKKKVTAQELDYLTRHYLVKNKKLYEFNNSPYETGYIKFIENENSFWYDMMPAPGDKFDQSKYLMMYNDNKMVDSKDVKIEVYLTTKKK
[4]
  fold amount of superantigen needed to inhibit TAL binding: 50 fold
[5]
  fold amount of superantigen needed to inhibit TAL binding: 50 fold
[6]
  fold amount of superantigen needed to inhibit TAL binding: 50 fold
